The source of these data is patent US8106013B2 (Georgia Tech Research Corporation, priority 2006, dated 2012).

Test [1] addresses T1, Shaker Kv1.1 channels (ShB-IR) (Drosophila melanogaster, UniProt P08510, DEL6-46).
T1 construct: expressed in transfected cells; host or cells: Xenopus oocytes injected with cRNA
Kind of test: ShB-IR K+ currents in oocytes, two-electrode voltage clamp. The settings on record: 24 nM recombinant ChTx. The test is classed as cell-based.
Description: For ShB-IR, holding potential was −90 mV. Leak subtraction used a P/4 protocol with a conditioning pulse to −120 mV. Voltage was stepped from −100 mV post-train to potentials ranging from −40 to 0 mV in 10 mV increments.
Adult female Xenopus were obtained from Xenopus One (Ann Arbor, Mich.). […] For experiments with ShB-IR, oocytes were injected with 0.06-1 ng cRNA. Leak currents were subtracted using a P/4 protocol; corrected traces are shown.
For these experiments, the ShB variant was used with inactivation-removed (ShB-IR).

Test [2] concerns the target T1, Shaker Kv1.1 channels (ShB-IR). The settings on record: read-out: reported Ki for inhibition of Shaker channels; cited from earlier work.

T1 sequence (P08510 with tags, fused parts or gaps DEL6-46): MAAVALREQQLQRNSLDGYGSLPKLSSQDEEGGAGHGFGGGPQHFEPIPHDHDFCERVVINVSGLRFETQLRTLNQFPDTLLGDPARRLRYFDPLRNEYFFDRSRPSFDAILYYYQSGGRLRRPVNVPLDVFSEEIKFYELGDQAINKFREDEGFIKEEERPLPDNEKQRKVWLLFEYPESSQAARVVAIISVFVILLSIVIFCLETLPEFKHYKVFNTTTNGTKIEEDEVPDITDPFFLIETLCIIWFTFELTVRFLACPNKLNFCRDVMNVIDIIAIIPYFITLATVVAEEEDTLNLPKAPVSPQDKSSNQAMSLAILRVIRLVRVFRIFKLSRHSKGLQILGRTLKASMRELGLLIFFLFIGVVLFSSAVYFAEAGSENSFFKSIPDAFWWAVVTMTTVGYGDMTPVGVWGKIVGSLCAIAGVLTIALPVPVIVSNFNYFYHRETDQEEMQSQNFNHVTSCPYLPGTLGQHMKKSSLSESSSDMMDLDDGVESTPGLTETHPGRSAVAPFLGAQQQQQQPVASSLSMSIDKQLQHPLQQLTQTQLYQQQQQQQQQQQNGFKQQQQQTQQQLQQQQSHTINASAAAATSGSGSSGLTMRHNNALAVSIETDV

Turning to charybdotoxin [ChTx], in test [1], the “inhibition of ShB-IR currents” value came to 15%. Also, in test [2], the Ki was ~200 nM.
